US20230233650A1, “NOVEL FATTY ACID MODIFIED UROCORTIN 2 DERIVATIVES AND THE USES THEREOF” (Novo Nordisk A/S, priority 2021, published 2023)
Numbered stars: 1 amine (or outer) side, 2 acyl side, 3 side chain; on linkers, the order of the positions; unused ones are H or OH. Side chains are listed from the residue outwards. Ends that are not written are not given here. * marks the point of attachment. C20 diacid = O=C(O)CCCCCCCCCCCCCCCCCCC(=O)*; γGlu = O=C(O)[C@H](CCC(=O)[*:2])N[*:1]; AEEA = NCCOCCOCC(=O)O

B1: Compound 1 - hUcn1 (human Urocortin 1 peptide) (peptide)
peptide: DNPSLSIDLTFHLLRTLLELARTQSQRERAEQNRIIFDSV-NH2
notes: also called human Ucn1
B2: Compound 2 - hUcn2 (human Urocortin 2 peptide) (peptide)
peptide: IVLSLDVPIGLLQILLEQARARAAREQATTNARILARV-NH2
B3: Compound 3: N{epsilon}-[C20 diacid-3xgGlu-2xAdo]Lys-[Glu33,Glu37]-hUcn2 (peptide)
peptide: K([AEEA-AEEA-γGlu-γGlu-γGlu-C20 diacid])IVLSLDVPIGLLQILLEQARARAAREQATTNAEILAEV-NH2
modifications: N-terminus assumed
SMILES: CC[C@H](C)[C@H](NC(=O)[C@H](CCC(=O)O)NC(=O)[C@H](C)NC(=O)[C@H](CC(N)=O)NC(=O)[C@@H](NC(=O)[C@@H](NC(=O)[C@H](C)NC(=O)[C@H](CCC(N)=O)NC(=O)[C@H](CCC(=O)O)NC(=O)[C@H](CCCNC(=N)N)NC(=O)[C@H](C)NC(=O)[C@H](C)NC(=O)[C@H](CCCNC(=N)N)NC(=O)[C@H](C)NC(=O)[C@H](CCCNC(=N)N)NC(=O)[C@H](C)NC(=O)[C@H](CCC(N)=O)NC(=O)[C@H](CCC(=O)O)NC(=O)[C@H](CC(C)C)NC(=O)[C@H](CC(C)C)NC(=O)[C@@H](NC(=O)[C@H](CCC(N)=O)NC(=O)[C@H](CC(C)C)NC(=O)[C@H](CC(C)C)NC(=O)CNC(=O)[C@@H](NC(=O)[C@@H]1CCCN1C(=O)[C@@H](NC(=O)[C@H](CC(=O)O)NC(=O)[C@H](CC(C)C)NC(=O)[C@H](CO)NC(=O)[C@H](CC(C)C)NC(=O)[C@@H](NC(=O)[C@@H](NC(=O)[C@@H](N)CCCCNC(=O)COCCOCCNC(=O)COCCOCCNC(=O)CC[C@H](NC(=O)CC[C@H](NC(=O)CC[C@H](NC(=O)CCCCCCCCCCCCCCCCCCC(=O)O)C(=O)O)C(=O)O)C(=O)O)[C@@H](C)CC)C(C)C)C(C)C)[C@@H](C)CC)[C@@H](C)CC)[C@@H](C)O)[C@@H](C)O)C(=O)N[C@@H](CC(C)C)C(=O)N[C@@H](C)C(=O)N[C@@H](CCC(=O)O)C(=O)N[C@H](C(N)=O)C(C)C
B4: Compound 4: N{epsilon}-[C20 diacid-3xgGlu-2xAdo]Lys-[Glu33,Glu36]-hUcn2 (peptide)
peptide: K([AEEA-AEEA-γGlu-γGlu-γGlu-C20 diacid])IVLSLDVPIGLLQILLEQARARAAREQATTNAEILERV-NH2
modifications: N-terminus assumed
SMILES: CC[C@H](C)[C@H](NC(=O)[C@H](CCC(=O)O)NC(=O)[C@H](C)NC(=O)[C@H](CC(N)=O)NC(=O)[C@@H](NC(=O)[C@@H](NC(=O)[C@H](C)NC(=O)[C@H](CCC(N)=O)NC(=O)[C@H](CCC(=O)O)NC(=O)[C@H](CCCNC(=N)N)NC(=O)[C@H](C)NC(=O)[C@H](C)NC(=O)[C@H](CCCNC(=N)N)NC(=O)[C@H](C)NC(=O)[C@H](CCCNC(=N)N)NC(=O)[C@H](C)NC(=O)[C@H](CCC(N)=O)NC(=O)[C@H](CCC(=O)O)NC(=O)[C@H](CC(C)C)NC(=O)[C@H](CC(C)C)NC(=O)[C@@H](NC(=O)[C@H](CCC(N)=O)NC(=O)[C@H](CC(C)C)NC(=O)[C@H](CC(C)C)NC(=O)CNC(=O)[C@@H](NC(=O)[C@@H]1CCCN1C(=O)[C@@H](NC(=O)[C@H](CC(=O)O)NC(=O)[C@H](CC(C)C)NC(=O)[C@H](CO)NC(=O)[C@H](CC(C)C)NC(=O)[C@@H](NC(=O)[C@@H](NC(=O)[C@@H](N)CCCCNC(=O)COCCOCCNC(=O)COCCOCCNC(=O)CC[C@H](NC(=O)CC[C@H](NC(=O)CC[C@H](NC(=O)CCCCCCCCCCCCCCCCCCC(=O)O)C(=O)O)C(=O)O)C(=O)O)[C@@H](C)CC)C(C)C)C(C)C)[C@@H](C)CC)[C@@H](C)CC)[C@@H](C)O)[C@@H](C)O)C(=O)N[C@@H](CC(C)C)C(=O)N[C@@H](CCC(=O)O)C(=O)N[C@@H](CCCNC(=N)N)C(=O)N[C@H](C(N)=O)C(C)C

Legend:
[1] = biological target: T1, Human CRF1 receptor (Corticotropin-Releasing Factor receptor 1) (human, UniProt P34998 24-415); assay: SPA, displacement of [125I]-Sauvagine from membranes of CHO-K1 cells expressing the CRF1 receptor
T1 construct: whole, on cells; also called type 1 CRF receptor
T1 sequence (looked up): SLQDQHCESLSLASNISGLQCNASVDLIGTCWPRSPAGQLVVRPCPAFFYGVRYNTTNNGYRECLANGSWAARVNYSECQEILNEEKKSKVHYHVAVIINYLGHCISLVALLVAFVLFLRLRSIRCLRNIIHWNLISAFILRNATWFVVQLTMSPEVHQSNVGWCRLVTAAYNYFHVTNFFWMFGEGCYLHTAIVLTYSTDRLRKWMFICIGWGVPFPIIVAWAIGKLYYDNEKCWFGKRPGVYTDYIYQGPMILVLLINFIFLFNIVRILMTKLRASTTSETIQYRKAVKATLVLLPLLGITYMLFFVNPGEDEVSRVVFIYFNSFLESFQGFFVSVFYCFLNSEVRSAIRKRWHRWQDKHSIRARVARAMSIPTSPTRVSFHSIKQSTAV
Procedure: Scintillation Proximity Assay: CHO-K1 cells expressing either the CRF₁ receptor or the CRF₂ receptor were obtained from DiscoveRx. Both cell lines were cultured at 37° C. in a humidified atmosphere with 5% CO₂. The culture media used was Ham’s F-12 Nutrient Mix with Glutamax (Gibco) containing 10% fetal bovine serum, 1% Pen/Strep, 800 µg/ml G418 and 300 µg/ml Hygromycin B. Membranes were prepared by the following protocol: cultured cells were washed twice with cold Dulbecco’s phosphate buffered saline and detached using TrypLE™ (ThermoFisher) and transferred to tubes and centrifuged for 5 minutes at 1000 g at +4° C. Pellets were resuspended in ice cold homogenization buffer (20 mM Hepes pH 7.1, 5 mM MgCl₂, 1 mg/ml Bacitracin with 2 complete EDTA-free protease inhibitor cocktail tablets/50 ml (Roche)) and then homogenized for 30 seconds using a Ultra-Turrax T25 tissue homogenizer (IKA) at medium speed. The homogenate was centrifuged at 35,000 g for 15 minutes at +4° C. using an ultracentrifuge, and the supernatant was discarded, and fresh homogenization buffer was added. Homogenization of the pellet was repeated a total of three times. The final pellet was resuspended in a few millilitres of homogenization buffer and protein concentration was determined using the Bradford method. The membrane preparation was transferred to cryotubes, and the aliquots were stored at -80° C. […]

[2] = biological target: T2, Pro-Link-tagged human CRF2 receptor (human, UniProt Q13324 20-411); assay: cell-based or functional assay
T2 sequence (looked up): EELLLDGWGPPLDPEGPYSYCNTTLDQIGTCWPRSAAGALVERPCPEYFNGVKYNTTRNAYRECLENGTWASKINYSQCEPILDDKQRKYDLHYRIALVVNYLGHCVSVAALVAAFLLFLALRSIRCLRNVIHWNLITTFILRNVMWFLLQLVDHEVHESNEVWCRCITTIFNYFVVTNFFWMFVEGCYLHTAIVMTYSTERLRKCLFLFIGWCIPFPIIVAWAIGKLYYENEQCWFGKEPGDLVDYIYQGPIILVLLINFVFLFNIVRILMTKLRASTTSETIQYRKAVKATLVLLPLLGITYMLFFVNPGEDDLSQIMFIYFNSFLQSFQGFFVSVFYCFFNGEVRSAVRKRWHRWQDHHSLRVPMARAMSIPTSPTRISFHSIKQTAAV

[3] = biological target: T3, Pro-Link-tagged human CRF1 receptor (human, UniProt P34998 24-415); assay: cell-based or functional assay
T3 sequence (looked up): T1 sequence (looked up)

[4] = biological target: T4, Human CRF1 receptor (Corticotropin-Releasing Factor receptor 1) (human), P34998; assay: SPA, displacement of [125I]-Sauvagine from membranes of CHO-K1 cells expressing the CRF1 receptor; settings: remark: other sources report otherwise
T4 chain: T1 sequence (looked up)

[5] = biological target: T5, Human CRF2 receptor (Corticotropin-Releasing Factor receptor 2) (human) (UniProt Q13324); assay: SPA, displacement of [125I]-Sauvagine from membranes of CHO-K1 cells expressing the CRF2 receptor
T5 sequence (looked up): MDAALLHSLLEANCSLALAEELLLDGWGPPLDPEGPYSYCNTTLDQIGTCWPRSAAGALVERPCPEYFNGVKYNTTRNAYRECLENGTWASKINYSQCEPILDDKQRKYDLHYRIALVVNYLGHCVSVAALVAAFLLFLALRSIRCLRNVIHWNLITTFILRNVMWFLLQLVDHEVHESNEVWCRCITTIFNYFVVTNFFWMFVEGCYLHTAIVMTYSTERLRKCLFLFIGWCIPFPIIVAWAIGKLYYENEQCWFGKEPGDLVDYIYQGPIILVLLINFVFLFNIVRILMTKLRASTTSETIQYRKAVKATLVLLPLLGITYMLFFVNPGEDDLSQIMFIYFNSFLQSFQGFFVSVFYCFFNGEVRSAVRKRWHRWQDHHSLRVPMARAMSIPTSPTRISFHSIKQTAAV

Row | Binder | IC50 [1] | Human CRF2 receptor EC50 [nM] (beta-arrestin recruitment, PathHunter) [2] | Human CRF1 receptor EC50 [nM] (beta-arrestin recruitment, PathHunter) [3] | IC50 [4] | IC50 [5]
1 | B1 | 0.07 nM | 31 nM | 22 nM | – | –
2 | B2 | – | – | > 10000 nM | 447 nM | 0.58 nM
3 | B3 | – | 55 nM | > 10000 nM | – | –
4 | B4 | – | 42 nM | > 10000 nM | – | –
